According to the supplement of paper PMC9170038:

Tested on: MS2 coat protein
Assay: apparent KD of MS2 coat protein; designed switch direction (-1 OFF switch, 1 ON switch): -1; higher = weaker reporter binding
How it was run: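 Three titration conditions were used: no input, 200 uM small-molecule ligand, and an oligonucleotide input. In each, SNAP-549-labelled MS2 coat protein was raised from 0.7 or 1.5 nM, doubling, to 3 µM over designed RNA switches transcribed on Illumina chips by stalled E. coli RNA polymerase. Curve fits of normalised cluster fluorescence gave values whose per-design median over clusters is the apparent KD.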

[1] = Eterna round: R95, input ligand: FMN 200 uM
[2] = Eterna round: R95, input ligand: microRNA oligo, concentration not stated
[3] = Eterna round: R95, input ligand: none
[4] = input ligand: microRNA oligo, concentration not stated

Sequence | apparent KD of MS2 coat protein (input ligand: FMN 200 uM) [nM] | apparent KD of MS2 coat protein (input ligand: none) [nM] | apparent KD of MS2 coat protein [1] [nM] | apparent KD of MS2 coat protein [2] [nM] | apparent KD of MS2 coat protein [3] [nM] | apparent KD of MS2 coat protein [4] [nM]
CCUCUACAUGAGGAUCACCCAUGUGAGGAUAUGUUGACGAGCCUGAAAAGGCUGGUCAACAGAAGGCAUAUGUA [Exclusion 1 (Mod 2 solution 16 by Eternabot)] (Eterna round: R97, puzzle: Exclusion 1) | 40.3 | 18.9 |  |  |  | 
GGACCGUAAGGAUAUGGCACGAAUCGACAGUCGAUCUCGAGCUAGAAGGUACAUGAGGAUCACCCAUGUCCGUU [Eternabot (L1) Solution 13] (Eterna round: R97, puzzle: Exclusion 4) | 25.4 | 19.2 |  |  |  | 
UUAUAUAAUGUGAGGAUAUGCUGGUCCAUAGAUCAGCAGAAGGCACAUGAGGAUCACCCAUGUAGUAAAUUUUA [Mat - Exclusion 4 - JL Mod - D12] (puzzle: Brourd's mod of Exclusion 4) |  |  | 24.2 | 14.5 | 14.8 | 
GACAGCAUGCAGGAUAUACCUCCUCUGCGGACGGUAGAAGGGCGUACAUGAGGAUCACCCAUGUCACCCAUUUC [Eternabot (L2) Solution 61] (Eterna round: R97, puzzle: Exclusion 6) | 13.9 | 14.4 |  |  |  | 
CUUGUGUGAGGAUAUGCGUAGGCAGUAAGUAAGUAGCCGGAGCAGAAGGCACAUGAGGAUCACCCAUGUGUUAC [EX4 B.1] (Eterna round: R97, puzzle: Exclusion 4) | 121 | 72.6 |  |  |  | 
AUGGAGGUAGUCAGGAUAUCGGGCGCUCGGGCGUACGAGAAGGGACAUGAGGAUCACCCAUGUCGCUCAUUCCA [BmEX4 C.2] (Eterna round: R97, puzzle: Brourd's mod of Exclusion 4) | 24.6 | 23.4 |  |  |  | 
UGCGGGCUUUUGAGACCUCACAUGAGGAUCACCCAUGUGCUCGUCUUAUGGGCCGGCCGGCCGUUGGCCGGCCGGCC [-44, -68.1 kcal, A 12%] (Eterna round: R97, puzzle: Sensor, turn-off variant 1) | 70.2 | 67.8 |  |  |  | 
UUUAAUUUUUUUUUUUUACAAGCUUUUUGCUCGUCUUAUACAUGAGGAUCACCCAUGUGGGUAGAGGAUAAAUUAUC [JMF 28] (puzzle: Sensor v3, turn-off variant 2) |  |  | 38.7 | 61.1 | 36.2 | 
ACACUGCGAGGAUAUACAUGAGGAUCACCCAUGUUUCGGUAGUCAAGGUUAAUUUAAGGUAGAAGGCGCGUAUU [JR_Ex3_Sub010] (Eterna round: R97, puzzle: Exclusion 3) | 63.8 | 33.2 |  |  |  | 
UAUGCCUUUGUGAGGAUAUACUUUGUUUGGUCGUAGUAGAAGGCACAUGAGGAUCACCCAUGUAGAUUUUUGGU [JR_BME4_Sub012] (puzzle: Brourd's mod of Exclusion 4) |  |  |  | 25.4 |  | 
UUUUGCACGCUGCGGUCCUACAUGAGGAUCACCCAUGUGGUCUGGUGGCGUGGGUCGCCGGACUUGGCUCGUCUUGA [salish99_S_TOV1_R5_037] (Eterna round: R97, puzzle: Sensor, turn-off variant 1) | 17.5 | 18.2 |  |  |  | 
AACGUACAGCAAAGCUGUACGCGUACAUGAGGAUCACCCAUGUAGGAUAUGGUAGGCAAAGCUUACUAGAAGGAUAGAGUGAUC [Mat - Exclusion NG 3 - Mod of JL - D77] (Eterna round: R96, puzzle: Exclusion NG 3) | 497 | 333 |  |  |  | 358
GAUCAUGCAGGAUAUACAUGGAACAUGAAAUCAUGAAUUUCACAUGAGGAUCACCCAUGUAGAAGGGCAUGAUC [Omei Ex2 A15] (Eterna round: R97, puzzle: Exclusion 2) | 23.1 | 24.9 |  |  |  | 
GCUUCGUCUGUGGGUGGUGACAUGAGGAUCACCCAUGUUUUGCUCGUCUUGUGCCGGGCCCGGCGCCCGGGCCCGGC [-38.7, -63.8, A 8%] (Eterna round: R97, puzzle: Sensor, turn-off variant 1) | 721 | 955 |  |  |  | 
AAAUACAAGCAAAGAUUCUACAUGAGGAUCACCCAUGUGCUCGUCUUAUAAAGUACUAUCACGAAAGUGAUAGUACA [Sensor 3, v1 - 33] (puzzle: Sensor v3, turn-off variant 1) |  |  | 21.3 | 161 | 23.2 | 
AGUGUGGGAGGAUAUACAUGAGGAUCACCCAUGUGAGUUGGCUCACAUGCUACGCUUCGUAGAAGGCCCAAAGA [Reragebion] (Eterna round: R96, puzzle: Exclusion 3) | 554 | 91.3 |  |  |  | 86.2

Sequence | apparent KD of MS2 coat protein (input ligand: FMN 200 uM) [nM] | apparent KD of MS2 coat protein (input ligand: none) [nM] | apparent KD of MS2 coat protein [1] [nM] | apparent KD of MS2 coat protein [2] [nM] | apparent KD of MS2 coat protein [3] [nM] | apparent KD of MS2 coat protein [4] [nM]
CUCGUGUGAGGAUAUUCACACCCGUUGCAGCGACGGACAAAGAAGAAGGCACAUGAGGAUCACCCAUGUAAAGA [Onan] (Eterna round: R97, puzzle: Exclusion 4) | 97.8 | 192 |  |  |  | 
UGAGUGCUGCGAGGAUAUACAUGAGGAUCACCCAUGUAAUCGUGUGAGGCAAAGCCUCACACGAAGUAGAAGGCGCAGUACUCA [Mat - Exclusion NG 2 - Mod of JL - D18] (Eterna round: R96, puzzle: Exclusion NG 2) | 15.7 | 18.6 |  |  |  | 12.4
UGAGUGCUGCGAGGAUAUACAUGAGGAUCACCCAUGUGGAUCUGUGAGGCUUUGCCUCACAGGAUGUAGAAGGCGCAGUACUCU [JL ENG2 1.19] (Eterna round: R96, puzzle: Exclusion NG 2) | 156 | 27.4 |  |  |  | 17.8
UUUGUGUAAGGAUAUGCGAGCCACGGAAAUAAAACGUGGAGGUAGAAGGUACAUGAGGAUCACCCAUGUAAAAC [Mod of Anonveat 21 - Jieux - Exclusion 4] (Eterna round: R97, puzzle: Exclusion 4) | 54.8 | 30 |  |  |  | 
CGGAUGUUAGGAUAUUAGUAGUAGUCAGAAAAGACUAUUACUGAGAAGGAACAUGAGGAUCACCCAUGUAUCCG [Mat - Exclusion 4 - Eli Mod - D45] (Eterna round: R97, puzzle: Exclusion 4) | 33.1 | 15.1 |  |  |  | 
ACAUGAGGAUCACCCAUGUAAUCAUGAUGGCUGAUGUAGAGGUAGGAUAUGAGUGGCUUUCUAUCUCAGAAGGACCAAGACUGG [Deportation 39 - Jieux - Exclusion NG 3] (Eterna round: R96, puzzle: Exclusion NG 3) | 29 | 27.3 |  |  |  | 21.6
ACACUGCGAGGAUAUACAUGAGGAUCACCCAUGUUAAGGAAGUCAAGGUUAAUUUAAGGUAGAAGGCGCUUAUU [JR_Ex3_Sub013] (Eterna round: R97, puzzle: Exclusion 3) | 46.2 | 39.7 |  |  |  | 
AAUGCGGACAAAGGAUAUUGCGGUGACCGGCUCGGCGUACCGAGCCUACAUGAGGAUCACCCAUGUAAGAAGGUUGUCGCAAAA [Mat - Exclusion NG 2 - Mod of JL - D75] (Eterna round: R96, puzzle: Exclusion NG 2) | 16.6 | 17.5 |  |  |  | 13.8
GGUUGGCGAGGAUAUACAUGAGGAUCACCCAUGUGAGAAAAUAGUGAGGAAAAGAAAAGUAGAAGGCGCUGACG [Mat - Exclusion 3 - Mod of Salish D54] (puzzle: Exclusion 3) |  |  | 320 | 38.8 | 41.5 | 
UUAUACGGUGAGGAUAUCUCCACUAAAGUGUGAAGAGAAGGCGCUACAUGAGGAUCACCCAUGUCUAUGGGCAG [Ex-6 Malc#16] (puzzle: Exclusion 6) |  |  | 905 | 262 | 320 | 
ACAAGCUUUUUGUUCGUCUUAUAAUAAUAAAUAAAUAUAACAUGAGGAUCACCCAUGUUAAGAAGACGGCCUCAUGU [Sesor Array 21 - Jieux - Sensor v3, turn-off variant 2] (puzzle: Sensor v3, turn-off variant 2) |  |  | 82.2 | 174 | 71.8 | 
GCAGGAUAAGUCAGGAUAUACCUAUGGAUACAUAGGUAGAAGGGACAUGAGGAUCACCCAUGUGCCUCGCCUGC [Fiskers BMX 4 - 72] (puzzle: Brourd's mod of Exclusion 4) |  |  |  | 12.4 |  | 
CAAUAACAAGCGAGAUCCUACAUGAGGAUCACCCAUGUGCUCGUCUUAAAAGGUACUGUGACGAUAGUCACGGUACC [Mat - Sensor, turn-off var - Eli Mod - D98] (Eterna round: R97, puzzle: Sensor, turn-off variant 1) | 15.3 | 17.9 |  |  |  | 
CUAGGGCACAUUUAAACGCCCUAACAUGAGGAUCACCCAUGUCAGGAUAUGUAGGCAAAGACCCUACAGAAGGGACAUGUCCUA [Recebe] (Eterna round: R96, puzzle: Exclusion NG 3) | 303 | 52.9 |  |  |  | 42.9
UUUGUUUGCACAGGAUAUUGUUAUUUUUUUUUUCAAGAAGGGUGUACAUGAGGAUCACCCAUGUUAUGGUUUUAUCUUUUACUU [JR_ExcNG1_Sub011] (Eterna round: R96, puzzle: Exclusion NG 1) | 764 | 1270 |  |  |  | 765
AAAUAGCGAGGAUAUACUGGAAUAGAAAAUAUUCGCAUGGCACAUGAGGAUCACCCAUGUAGAAGGCGCAGUAA (Eterna round: R97, puzzle: Exclusion 2) | 85.5 | 25.5 |  |  |  | 
